Assay results published in patent US20160031986A1.
Substitutions are numbered along the chain they refer to.

B1: 14G1 rat monoclonal antibody (antibody, V domains shown)
VH: EVQLQQSGAELAKPGSSVKISCKASGYTFTNYDISWIKQTNGQGLEYLGYINTGSGGIYSNEKFKGKATLTVDKSSNTAFMQLSSLTPEDTAVYYCVREGNNFDHWGQGVKVTVSS
VL: DTVMTQSPASMSTSVGERVTVNCKASQSVGTIVAWFQQKPGQSPKRLIYLATYRHTGVPDRFIGSGFGRDFTLTISNVEAEDLAVYYCLQYGSRPFTFGAGTKLEIKR
B2: 15D6 rat monoclonal antibody (antibody, V domains shown)
VH: EVQLQQSGPELAKPGSSVKISCKASGYTFTSSYISWIKQTTGQGLEYIGYINTGSGGTDYNEKFKDKATLTVDKSSRTVFMQLSSLTPGDSAVYYCAKSILLGSTYYLDYWGQGVMVTVSS
VL: DTVLTQSPALAVSLGQRVTISCKASRSLSSPMYSYIYWYQQKLGQQPRLLIYRASTLASGVPARFSGSGSGTDFTLNIDPVEADDIATYFCQQSWSDPFTFGSGTKLEIKR
B3: 14A11 rat monoclonal antibody (antibody, V domains shown)
VH: B2 VH with S31N, I48V, T58A, D66G, V79A, Y106C, L108F, M116L
VL: B2 VL with D1N, L28V, L43P, R48K
B4: 32C7 rat monoclonal antibody (antibody, V domains shown)
VH: EVQLVESGGGLVQPGRSLKLSCLASGFPFSSVWMTWIRQAPGKGLEWIATITNSGASTYYSASVKGRFTISRDNVKSTLYLQMTSLGSEDTATYYCTRVGTSFDYWGQGVMVTVSS
VL: DIQMTQSPASLSASLGETVTIECRASDDIYNGLAWFQQKPGKSPQLLIYDANTLHTGVPSRFSGSGSGTQFSLKINSLQSEDVASYFCQQFYDYPPYTFGAGTKLELKR
B5: 1A11 rat monoclonal antibody (antibody, V domains shown)
VH: EVQLVESGGGLVQPGRSMKLSCAASGFTFRNFPMAWVRQAPTRGLEWVATISSSDGTTYYRDSVKGRFTISRDNAKSTLYLQVNSLRSEDTATYYCSRGYYNSPFAYWGQGTLVTVSS
VL: DIQMTQSPASLSASLGETVTIECRASEDIYSNLAWYQQKPGNSPQLLIFDTNNLADGVPSRFSGSGSGTQSSLKINSLQSEDVASYFCQQYNNYPPTFGGGTKLELKR
B6: 37D10 rat monoclonal antibody (antibody, V domains shown)
VH: AVQLVESGGGLVQPKESLKISCAASGFTFSNAAMYWVRLAPGKGLEWVARIRTKPNNYATYYAESVKGRFTISRDDSKSMVYVQMDNLKTEDTAMYYCTAAPWRDSYAHVYWGQGVMVTVSS
VL: DIQMTQSPPVLSASVGDRVTLSCKASQNIHKNLDWYQQKHGDAPKLLIYYTDHLQTGVPSRFSGSGSATDYTLTISSLQPEDVATYYCYQYNGGPFTFGSGTKLEIKR
B7: 38H12 rat monoclonal antibody (antibody, V domains shown)
VH: EVQLVESGGGLVQPGRSLKLSCAASGFTFSNYGMYWIRQAPTKGLQWVAFISHGGGITYYRDSVKGRFTISRDNAKSTLYLQMDSLRSEDTATYHCAALNWELGIDYWGQGVMVTVSS
VL: DIQMTQSPASLSASLGETISIECRASEDIYSNLAWYQKKSGKSPQLLIYAANRLQDGVPSRFSGSGSGTQYSLKISGMQPEDEGDYFCLQGSKFPLTFGSGTKLEIKR
B8: h1A11.2 (antibody, V domains shown)
VH: EVQLVESGGGLVQPGGSLRLSCAASGFTFSNFPMAWVRQAPGKGLEWVATISSSDGTTYYRDSVKGRFTISRDNAKNSLYLQMNSLRAEDTAVYYCARGYYNSPFAYWGQGTLVTVSS
VL: DIQMTQSPSSLSASVGDRVTITCRASEDIYSNLAWYQQKPGKSPKLLIFDTNNLADGVPSRFSGSGSGTDSTLTISSLQPEDFATYFCQQYNNYPPTFGQGTKLEIKR
B9: h1A11.3 (antibody, V domains shown)
VH: B8 VH
VL: B8 VL with S43A, S71F, F87Y
B10: h1A11.16 (antibody, V domains shown)
VH: B8 VH with A75S, N77S, S78T, A97S
VL: EIVMTQSPATLSVSPGERATLSCRASEDIYSNLAWYQQKPGQSPRLLIFDTNNLADGVPARFSGSGSGTESTLTISSLQSEDFAVYFCQQYNNYPPTFGQGTKLEIKR
B11: h1A11.6 (antibody, V domains shown)
VH: B8 VH with N77S, A97S
VL: B8 VL
B12: h1A11.12 (antibody, V domains shown)
VH: B8 VH with A97S
VL: B10 VL
B13: h1A11.15 (antibody, V domains shown)
VH: B8 VH with A75S, N77S, S78T, A97S
VL: B8 VL with S43A, S71F, F87Y
B14: h1A11.7 (antibody, V domains shown)
VH: B8 VH with N77S, A97S
VL: B8 VL with S43A, S71F, F87Y
B15: h1A11.4 (antibody, V domains shown)
VH: B8 VH
VL: B10 VL
B16: h1A11.14 (antibody, V domains shown)
VH: B8 VH with A75S, N77S, S78T, A97S
VL: B8 VL
B17: h1A11.9 (antibody, V domains shown)
VH: B8 VH with A97S
VL: B8 VL with S43A, F49Y, S71F, F87Y
B18: h1A11.10 (antibody, V domains shown)
VH: B8 VH with A97S
VL: B8 VL
B19: h1A11.13 (antibody, V domains shown)
VH: B8 VH with A75S, N77S, S78T, A97S
VL: B8 VL with S43A, F49Y, S71F, F87Y
B20: h1A11.8 (antibody, V domains shown)
VH: B8 VH with N77S, A97S
VL: B10 VL
B21: h1A11.11 (antibody, V domains shown)
VH: B8 VH with A97S
VL: B8 VL with S43A, S71F, F87Y
B22: h1A11.5 (antibody, V domains shown)
VH: B8 VH with N77S, A97S
VL: B8 VL with S43A, F49Y, S71F, F87Y

target: cynomolgus monkey DLL4 extracellular domain (cynomolgus monkey); test: Biacore SPR

Row | Kd [nM] | koff [s⁻¹] | kon [M⁻¹ s⁻¹] | Binder
1 | 10.5 | 0.00041 | 39000 | B1
2 | 14.9 | 0.00083 | 56000 | B2
3 | 11.6 | 0.0012 | 110000 | B3
4 | 0.03 | 6.3e-06 | 220000 | B4
5 | 8.1 | 0.00093 | 110000 | B5
6 | < 617 | – | 40000 | B6
7 | 0.4 | 9.8e-05 | 260000 | B7

target: cynomolgus monkey DLL4 extracellular domain (cynomolgus monkey); test: binding ELISA

Row | EC50 [nM] | Binder
8 | 0.13 | B8
9 | 0.16 | B9
10 | 0.12 | B10
11 | 0.13 | B11
12 | 0.16 | B12
13 | 0.13 | B13
14 | 0.14 | B14
15 | 0.17 | B15
16 | 0.14 | B16
17 | 0.15 | B17
18 | 0.15 | B18
19 | 0.16 | B19
20 | 0.17 | B20
21 | 0.15 | B21
22 | 0.16 | B22
